# Measured values published in article PMC8983440.
# Target: IFN-receptor expressed by 38C13 cells (mouse (endogenous in 38C13)) (UniProt P33896)
# Assay: radioligand binding
# Sequence of UniProt P33896 (P33896 27-590, chain 1 of 2): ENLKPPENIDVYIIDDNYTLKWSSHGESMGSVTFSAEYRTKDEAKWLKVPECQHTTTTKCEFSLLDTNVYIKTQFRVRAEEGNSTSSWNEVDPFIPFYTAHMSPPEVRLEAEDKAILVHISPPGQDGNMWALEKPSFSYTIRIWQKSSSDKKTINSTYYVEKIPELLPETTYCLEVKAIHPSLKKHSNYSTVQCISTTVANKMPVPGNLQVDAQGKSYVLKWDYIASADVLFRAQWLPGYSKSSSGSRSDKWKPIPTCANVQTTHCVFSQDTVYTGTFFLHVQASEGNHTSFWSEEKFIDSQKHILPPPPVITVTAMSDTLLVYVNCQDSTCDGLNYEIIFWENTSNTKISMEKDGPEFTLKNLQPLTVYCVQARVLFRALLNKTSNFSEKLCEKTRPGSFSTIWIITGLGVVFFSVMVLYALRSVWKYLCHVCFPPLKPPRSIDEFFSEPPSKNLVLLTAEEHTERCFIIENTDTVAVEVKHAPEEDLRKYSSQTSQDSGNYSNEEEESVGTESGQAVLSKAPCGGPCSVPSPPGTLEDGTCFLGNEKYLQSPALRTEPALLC
# Sequence of UniProt P33896 (O35664 22-513, chain 2 of 2, further chain): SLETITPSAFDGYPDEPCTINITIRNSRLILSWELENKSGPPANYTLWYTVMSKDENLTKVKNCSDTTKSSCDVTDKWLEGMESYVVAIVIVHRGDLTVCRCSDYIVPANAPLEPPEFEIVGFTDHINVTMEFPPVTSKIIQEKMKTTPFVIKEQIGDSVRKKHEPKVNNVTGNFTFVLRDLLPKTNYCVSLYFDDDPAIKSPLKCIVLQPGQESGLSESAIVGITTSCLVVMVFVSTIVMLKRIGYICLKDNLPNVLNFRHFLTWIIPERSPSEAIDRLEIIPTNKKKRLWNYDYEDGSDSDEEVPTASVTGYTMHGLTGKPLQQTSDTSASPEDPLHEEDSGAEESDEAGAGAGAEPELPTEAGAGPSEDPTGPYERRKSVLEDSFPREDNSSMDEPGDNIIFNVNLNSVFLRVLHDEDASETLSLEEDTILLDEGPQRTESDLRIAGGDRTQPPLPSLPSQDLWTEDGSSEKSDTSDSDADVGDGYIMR
substance,measurement,value
anti-CD20 rituximab-murine IFNα1 fusion protein (from UniProt P01572 24-189),percent cell-bound activity,44.6%
